Laboratory results: patent publication US20240034787A1 (TOKYO UNIVERSITY OF PHARMACY AND LIFE SCIENCES, published 2024)

Molecular target: T1, LRP1 of rat retinal ganglion cells (rat, UniProt G3V928 20-4545)
T1 construct: Endogenous LRP1 in the rat retina (ganglion cell layer); also called LRP1 on retinal ganglion cells
Assay: fluorescent immunostaining of rat retina sections after intravitreal administration (colocalisation in the ganglion cell layer)
Method: Frozen specimen preparation and immunofluorescence staining of rat eyeballs were performed in the following procedures. [0212] (1) Thinly sliced sections were prepared in the same manner as in the HE staining method. [0213] (2) 15% blocking buffer (in PBS, goat 15% serum, 0.05% Tween 20) was added and reacted at room temperature for one hour. [0214] (3) Washing was performed with PBS for 15 minutes. [0215] (4) A Primary antibody ([…] in 1% blocking buffer) was added and incubated overnight at 4° C. [0216] (5) Washing was performed with PBS for 15 minutes. [0217] (6) A secondary antibody (Alexa Fluor 488-bound goat anti-rabbit IgG (dilution 1:500, Invitrogen)) and Alexa Fluor 594-bound goat anti-human IgG (dilution 1:500, Invitrogen)) were added and reacted at room temperature for one hour. [0218] (7) Washing was performed with PBS containing Heochst33342 (1:2000 dilution) for one minute. [0219] (8) After encapsulation, observation was performed with a fluorescence microscope.
In the above experiment, it was observed by fluorescent immunostaining whether C2-D11 IgG binds to LRP1 of retinal ganglion cells after being administered into the vitreous body of rats. […] On the other hand, it was shown that the anti-OVA antibody was not colocalized.

T1 sequence (G3V928 20-4545 limits assumed): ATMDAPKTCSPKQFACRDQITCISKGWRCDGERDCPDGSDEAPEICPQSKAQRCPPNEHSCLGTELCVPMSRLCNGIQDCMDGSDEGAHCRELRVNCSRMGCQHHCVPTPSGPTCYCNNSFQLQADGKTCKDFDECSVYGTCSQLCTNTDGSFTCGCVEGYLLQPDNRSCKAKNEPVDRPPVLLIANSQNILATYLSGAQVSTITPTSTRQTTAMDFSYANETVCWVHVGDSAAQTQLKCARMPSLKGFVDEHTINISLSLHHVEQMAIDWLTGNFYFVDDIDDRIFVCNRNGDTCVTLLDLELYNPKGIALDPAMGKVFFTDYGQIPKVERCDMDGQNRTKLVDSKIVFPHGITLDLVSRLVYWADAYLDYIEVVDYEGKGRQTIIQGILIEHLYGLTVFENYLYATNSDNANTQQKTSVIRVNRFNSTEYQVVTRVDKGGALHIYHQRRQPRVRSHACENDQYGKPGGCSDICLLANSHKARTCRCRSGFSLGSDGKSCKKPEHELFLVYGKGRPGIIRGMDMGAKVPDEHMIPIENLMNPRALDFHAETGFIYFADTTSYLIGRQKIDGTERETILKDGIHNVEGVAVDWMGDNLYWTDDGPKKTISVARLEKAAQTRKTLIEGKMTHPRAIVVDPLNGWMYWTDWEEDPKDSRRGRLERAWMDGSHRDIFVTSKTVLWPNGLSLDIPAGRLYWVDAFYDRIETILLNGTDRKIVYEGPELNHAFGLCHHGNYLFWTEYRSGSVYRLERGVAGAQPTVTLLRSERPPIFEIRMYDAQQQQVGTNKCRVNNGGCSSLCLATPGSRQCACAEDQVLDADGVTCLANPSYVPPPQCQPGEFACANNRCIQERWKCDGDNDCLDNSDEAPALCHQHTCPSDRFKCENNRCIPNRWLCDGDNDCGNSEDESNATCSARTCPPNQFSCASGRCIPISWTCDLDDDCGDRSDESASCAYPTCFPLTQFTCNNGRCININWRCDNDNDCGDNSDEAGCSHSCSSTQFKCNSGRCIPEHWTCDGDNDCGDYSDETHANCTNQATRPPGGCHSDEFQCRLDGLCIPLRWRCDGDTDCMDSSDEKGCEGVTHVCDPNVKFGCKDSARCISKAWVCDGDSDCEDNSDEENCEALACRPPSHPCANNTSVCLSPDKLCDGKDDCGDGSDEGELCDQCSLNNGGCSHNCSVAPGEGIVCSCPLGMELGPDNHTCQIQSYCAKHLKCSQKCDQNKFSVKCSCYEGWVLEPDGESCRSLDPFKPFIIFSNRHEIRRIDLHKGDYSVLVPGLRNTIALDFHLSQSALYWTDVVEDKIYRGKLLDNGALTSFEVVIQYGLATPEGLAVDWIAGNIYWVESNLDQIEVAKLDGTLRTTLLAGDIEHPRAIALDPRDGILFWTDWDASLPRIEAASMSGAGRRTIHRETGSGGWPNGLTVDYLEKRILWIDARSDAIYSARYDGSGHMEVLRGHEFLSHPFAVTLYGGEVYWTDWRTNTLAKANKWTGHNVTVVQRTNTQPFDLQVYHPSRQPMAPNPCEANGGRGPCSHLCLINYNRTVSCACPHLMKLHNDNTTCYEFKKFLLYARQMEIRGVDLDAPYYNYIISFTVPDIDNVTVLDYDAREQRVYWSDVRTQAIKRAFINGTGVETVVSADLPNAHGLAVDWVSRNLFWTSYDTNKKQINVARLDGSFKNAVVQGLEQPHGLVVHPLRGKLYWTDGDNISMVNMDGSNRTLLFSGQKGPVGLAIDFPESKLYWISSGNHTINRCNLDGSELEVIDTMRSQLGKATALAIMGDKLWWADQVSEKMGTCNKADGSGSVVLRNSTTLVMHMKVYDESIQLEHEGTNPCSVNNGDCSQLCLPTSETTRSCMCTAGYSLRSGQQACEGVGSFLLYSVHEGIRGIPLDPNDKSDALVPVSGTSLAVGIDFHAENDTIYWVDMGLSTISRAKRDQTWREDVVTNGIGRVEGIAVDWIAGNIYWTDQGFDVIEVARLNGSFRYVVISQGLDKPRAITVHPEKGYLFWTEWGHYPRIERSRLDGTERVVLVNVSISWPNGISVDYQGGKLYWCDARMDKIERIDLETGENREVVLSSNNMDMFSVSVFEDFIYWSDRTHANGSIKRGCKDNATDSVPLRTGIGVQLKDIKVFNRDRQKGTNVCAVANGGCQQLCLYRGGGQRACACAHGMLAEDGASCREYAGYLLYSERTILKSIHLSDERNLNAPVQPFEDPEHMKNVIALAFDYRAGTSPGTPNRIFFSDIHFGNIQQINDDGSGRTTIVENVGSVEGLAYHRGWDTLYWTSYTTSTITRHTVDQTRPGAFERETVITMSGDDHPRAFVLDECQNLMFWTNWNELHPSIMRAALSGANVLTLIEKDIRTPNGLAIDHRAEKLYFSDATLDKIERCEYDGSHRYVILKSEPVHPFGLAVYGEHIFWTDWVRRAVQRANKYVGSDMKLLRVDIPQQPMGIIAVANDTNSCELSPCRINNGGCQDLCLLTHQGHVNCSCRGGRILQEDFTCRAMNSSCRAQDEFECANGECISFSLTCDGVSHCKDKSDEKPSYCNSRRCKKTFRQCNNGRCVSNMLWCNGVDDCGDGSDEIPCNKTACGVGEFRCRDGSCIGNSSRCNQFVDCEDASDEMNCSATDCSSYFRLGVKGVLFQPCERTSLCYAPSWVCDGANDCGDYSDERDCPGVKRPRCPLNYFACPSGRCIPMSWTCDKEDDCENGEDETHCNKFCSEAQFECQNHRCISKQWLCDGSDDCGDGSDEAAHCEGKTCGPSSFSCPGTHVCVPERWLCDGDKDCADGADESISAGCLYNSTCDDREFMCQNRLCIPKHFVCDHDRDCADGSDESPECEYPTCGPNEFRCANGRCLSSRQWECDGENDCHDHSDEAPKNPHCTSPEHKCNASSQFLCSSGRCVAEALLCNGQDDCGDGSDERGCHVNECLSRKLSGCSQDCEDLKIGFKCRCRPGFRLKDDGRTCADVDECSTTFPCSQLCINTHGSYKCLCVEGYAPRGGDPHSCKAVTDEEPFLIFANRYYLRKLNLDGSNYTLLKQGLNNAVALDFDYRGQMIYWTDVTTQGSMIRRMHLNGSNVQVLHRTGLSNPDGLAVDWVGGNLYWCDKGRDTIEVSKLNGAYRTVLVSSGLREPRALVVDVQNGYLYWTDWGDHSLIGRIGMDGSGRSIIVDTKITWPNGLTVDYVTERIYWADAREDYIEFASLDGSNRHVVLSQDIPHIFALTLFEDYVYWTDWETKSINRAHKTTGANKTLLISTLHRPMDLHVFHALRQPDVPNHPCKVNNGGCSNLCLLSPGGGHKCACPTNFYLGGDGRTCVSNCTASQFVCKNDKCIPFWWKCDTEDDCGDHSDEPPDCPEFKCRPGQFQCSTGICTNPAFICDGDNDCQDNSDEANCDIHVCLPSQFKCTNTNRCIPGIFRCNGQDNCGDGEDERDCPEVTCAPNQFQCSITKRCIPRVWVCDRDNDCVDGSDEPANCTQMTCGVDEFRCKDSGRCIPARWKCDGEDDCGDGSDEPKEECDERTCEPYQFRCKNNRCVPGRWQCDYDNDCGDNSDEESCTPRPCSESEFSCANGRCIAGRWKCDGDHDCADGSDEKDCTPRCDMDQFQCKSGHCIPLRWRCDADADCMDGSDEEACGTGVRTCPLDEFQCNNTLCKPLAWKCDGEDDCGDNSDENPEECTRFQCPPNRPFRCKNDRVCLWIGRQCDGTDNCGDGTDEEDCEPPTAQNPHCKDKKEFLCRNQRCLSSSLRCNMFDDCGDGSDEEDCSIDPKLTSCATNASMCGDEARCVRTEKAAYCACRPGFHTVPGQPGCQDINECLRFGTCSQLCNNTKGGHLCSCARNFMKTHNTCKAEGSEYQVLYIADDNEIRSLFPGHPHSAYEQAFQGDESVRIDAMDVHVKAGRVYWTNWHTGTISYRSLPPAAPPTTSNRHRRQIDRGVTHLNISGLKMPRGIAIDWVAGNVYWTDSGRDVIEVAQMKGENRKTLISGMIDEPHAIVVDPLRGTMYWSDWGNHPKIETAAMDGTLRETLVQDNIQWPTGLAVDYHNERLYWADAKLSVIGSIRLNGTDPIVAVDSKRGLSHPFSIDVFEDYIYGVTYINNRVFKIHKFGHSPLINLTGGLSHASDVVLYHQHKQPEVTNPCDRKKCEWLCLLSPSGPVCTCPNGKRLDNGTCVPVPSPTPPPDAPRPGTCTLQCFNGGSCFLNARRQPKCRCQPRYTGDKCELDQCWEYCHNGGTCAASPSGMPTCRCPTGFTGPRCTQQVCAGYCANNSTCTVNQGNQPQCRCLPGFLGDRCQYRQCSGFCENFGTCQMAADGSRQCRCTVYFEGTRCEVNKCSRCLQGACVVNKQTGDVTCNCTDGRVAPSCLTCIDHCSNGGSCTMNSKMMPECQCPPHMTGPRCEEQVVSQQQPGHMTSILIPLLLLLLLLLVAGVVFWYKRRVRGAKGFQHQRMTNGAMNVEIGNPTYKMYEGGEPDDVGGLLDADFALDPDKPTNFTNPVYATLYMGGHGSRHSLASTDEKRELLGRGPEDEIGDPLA

B1: anti-LRP1 human IgG1 antibody prepared from C2_D11 (antibody, V domains shown)
VH: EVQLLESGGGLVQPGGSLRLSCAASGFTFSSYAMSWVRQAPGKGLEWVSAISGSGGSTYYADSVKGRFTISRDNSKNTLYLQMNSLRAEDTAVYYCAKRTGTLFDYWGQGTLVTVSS
VL: SSELTQDPAVSVALGQTVRITCQGDSLRSYYASWYQQKPGQAPVLVIYGKNNRPSGIPDRFSGSSSGNTASLTITGAQAEDEADYYCNSSQAQRNAVVFGGGTKLTVLG
notes: VH and VL of C2_D11 were put into expression vectors with a human IgG1 Fc region and expressed in HEK-293; also called C2-D11 IgG; human C2-D11 IgG
Does B1 bind?
Result: binds
